# Changes are numbered by the printed parent chain.
# B1: 01E11R2 VHH Mono-Fc (Fc fusion)
# chain: QVQLVESGGGLVQTGGSLRLSCAASGLTFSSYTMGWFRQAPGKEREFVAAISWGGASTWYADSVKGRFTISRDNAKTMVYLQMNGLKPEDTAVYYCAKGRNNGYATAVRAYDYWGQGTLVTVSSSPAPELLGGPSVFLFPPKPKDTLMISRTPEVTCVVVDVSHEDPEVKFNWYVDGVEVHNAKTKPREEQYNSTYRVVSVLTVLHQDWLNGKEYKCKVSNKALPAPIEKTISKAKGQPREPQVYTKPPSREEMTKNQVSLSCLVKGFYPSDIAVEWESNGQPENNYKTTVPVLDSDGSFRLASYLTVDKSRWQQGNVFSCSVMHEALHNHYTQKSLSLSPGK
# B2: 01C03R3L VHH Mono-Fc (Fc fusion)
# chain: QVQLVESGGGLVQPGGRLRLSCAASGSIFSIRDMGWYRQAPGKQRELVAIFARGGSTHYADSVKGRFTISRDNAKNTVYLQMNSLEPEDTAAYYCNAEVATMIQPGFRDYWGQGTLVTVSSSPAPELLGGPSVFLFPPKPKDTLMISRTPEVTCVVVDVSHEDPEVKFNWYVDGVEVHNAKTKPREEQYNSTYRVVSVLTVLHQDWLNGKEYKCKVSNKALPAPIEKTISKAKGQPREPQVYTKPPSREEMTKNQVSLSCLVKGFYPSDIAVEWESNGQPENNYKTTVPVLDSDGSFRLASYLTVDKSRWQQGNVFSCSVMHEALHNHYTQKSLSLSPGK
# B3: 02D06R3 VHH Mono-Fc (Fc fusion)
# chain: B2 chain with G35A, L47W, F51A, S84T, L116Q
# B4: 02B03R3 VHH Mono-Fc (Fc fusion)
# chain: B2 chain with Q1E, P14S, R17Q, F29A, G35A, S56T, I103F, Q113R
# B5: 02H11R3 VHH Mono-Fc (Fc fusion)
# chain: EVQLVESGGGSVQAGGSLRLSCAASGRTFSNYAMGWFRQAPGKEREFVAGISRSGGSTYSADSVKGRFTISRDNAKNTVYLQMNSLKPEDTAVYYCAADGLDYALGFRGDYWGQGTQVTVSSSPAPELLGGPSVFLFPPKPKDTLMISRTPEVTCVVVDVSHEDPEVKFNWYVDGVEVHNAKTKPREEQYNSTYRVVSVLTVLHQDWLNGKEYKCKVSNKALPAPIEKTISKAKGQPREPQVYTKPPSREEMTKNQVSLSCLVKGFYPSDIAVEWESNGQPENNYKTTVPVLDSDGSFRLASYLTVDKSRWQQGNVFSCSVMHEALHNHYTQKSLSLSPGK
# B6: 01G03R3L VHH Mono-Fc (Fc fusion)
# chain: B5 chain with E1Q, Q117L
# Target: T1, cynomolgus monkey pIgR extracellular domain (cynomolgus monkey, UniProt A0A2K5WMU9 19-638)
# T1 construct: extracellular domain
# T1 sequence (A0A2K5WMU9 entry or part of it): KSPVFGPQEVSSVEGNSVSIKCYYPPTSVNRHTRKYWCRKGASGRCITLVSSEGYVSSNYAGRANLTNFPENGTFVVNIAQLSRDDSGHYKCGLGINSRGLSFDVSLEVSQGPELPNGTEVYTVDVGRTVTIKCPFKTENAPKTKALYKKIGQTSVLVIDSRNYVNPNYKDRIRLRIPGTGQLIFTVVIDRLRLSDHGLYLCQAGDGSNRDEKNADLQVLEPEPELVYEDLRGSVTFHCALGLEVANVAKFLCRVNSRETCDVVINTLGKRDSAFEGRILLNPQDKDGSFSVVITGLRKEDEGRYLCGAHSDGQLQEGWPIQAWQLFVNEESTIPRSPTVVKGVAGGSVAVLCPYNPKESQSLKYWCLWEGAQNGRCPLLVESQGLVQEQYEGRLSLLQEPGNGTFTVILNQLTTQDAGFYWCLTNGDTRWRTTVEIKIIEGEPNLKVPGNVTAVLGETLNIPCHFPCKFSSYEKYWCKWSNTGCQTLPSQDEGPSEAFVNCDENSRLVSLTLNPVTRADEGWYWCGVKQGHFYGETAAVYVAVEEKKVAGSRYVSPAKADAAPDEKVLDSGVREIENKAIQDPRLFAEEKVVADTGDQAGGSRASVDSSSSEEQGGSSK
# Assay: SPR, VHH captured by anti-Fc, ECD analyte
# In short: (§1)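 Anti-human Fc surface captured VHH at 0.5 ug/ml (~200-300 RU); running buffer HBSP with 100 ug/ml BSA, 30 μL/min. Single-cycle kinetics with ECD injected low to high from 30 nM in 3-fold dilutions, dissociation 30 min. Double-referenced data globally fit to 1:1 Langmuir model for kon, koff, KD.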
row,Binder,Kd
1,B1,86.1 nM

# Target: T2, rat pIgR extracellular domain (rat, UniProt P15083 19-643)
# T2 construct: extracellular domain
# T2 sequence (looked up): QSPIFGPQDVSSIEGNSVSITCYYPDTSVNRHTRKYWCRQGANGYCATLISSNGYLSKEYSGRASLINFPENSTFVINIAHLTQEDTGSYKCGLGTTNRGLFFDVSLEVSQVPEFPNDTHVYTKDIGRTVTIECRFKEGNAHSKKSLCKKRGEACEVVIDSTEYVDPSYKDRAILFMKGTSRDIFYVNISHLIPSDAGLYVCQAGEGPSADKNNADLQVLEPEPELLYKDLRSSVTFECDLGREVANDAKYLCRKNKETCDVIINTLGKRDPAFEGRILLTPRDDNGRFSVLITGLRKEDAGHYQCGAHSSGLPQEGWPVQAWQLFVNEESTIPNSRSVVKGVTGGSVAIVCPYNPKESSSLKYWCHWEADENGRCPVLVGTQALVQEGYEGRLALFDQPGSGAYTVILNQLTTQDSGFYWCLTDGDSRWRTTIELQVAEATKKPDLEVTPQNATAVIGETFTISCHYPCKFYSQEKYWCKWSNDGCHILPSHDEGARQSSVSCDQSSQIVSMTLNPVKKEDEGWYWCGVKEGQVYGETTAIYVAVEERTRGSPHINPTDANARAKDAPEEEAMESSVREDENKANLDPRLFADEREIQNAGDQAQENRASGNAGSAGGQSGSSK
# Assay: SPR, VHH captured by anti-Fc, ECD analyte
# In short: as §1
row,Binder,Kd
1,B2,16 nM
2,B3,0.448 nM
3,B4,1.32 nM
4,B1,22.5 nM
5,B5,1.74 nM
6,B6,1.61 nM

# Target: T3, mouse pIgR extracellular domain (ECD) (mouse, UniProt O70570 19-645)
# T3 construct: Bought from R&D Systems (Cat 2800-PG-050); also called mpIgR ECD
# T3 sequence: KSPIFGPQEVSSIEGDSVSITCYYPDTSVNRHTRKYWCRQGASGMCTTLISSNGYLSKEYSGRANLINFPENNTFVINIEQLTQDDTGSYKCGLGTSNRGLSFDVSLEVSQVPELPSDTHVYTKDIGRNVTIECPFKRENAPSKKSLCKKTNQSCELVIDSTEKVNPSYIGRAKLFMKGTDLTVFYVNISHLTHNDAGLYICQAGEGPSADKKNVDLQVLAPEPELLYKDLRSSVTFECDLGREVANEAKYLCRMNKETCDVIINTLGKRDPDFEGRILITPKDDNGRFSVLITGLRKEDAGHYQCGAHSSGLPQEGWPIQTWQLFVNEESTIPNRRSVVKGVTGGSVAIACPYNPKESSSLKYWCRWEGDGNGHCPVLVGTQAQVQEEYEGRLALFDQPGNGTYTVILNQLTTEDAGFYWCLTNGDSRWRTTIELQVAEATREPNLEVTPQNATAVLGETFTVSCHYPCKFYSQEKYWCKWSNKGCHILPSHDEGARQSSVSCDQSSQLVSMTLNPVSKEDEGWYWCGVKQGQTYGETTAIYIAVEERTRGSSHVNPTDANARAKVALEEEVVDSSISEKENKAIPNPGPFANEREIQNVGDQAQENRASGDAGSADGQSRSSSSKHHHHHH
# Assay: SPR, VHH captured by anti-Fc, ECD analyte
# In short: as §1
row,Binder,Kd
1,B2,33.1 nM
2,B3,1.34 nM
3,B4,2.76 nM
4,B1,20.6 nM
5,B5,0.71 nM
6,B6,0.796 nM

# Target: T4, human pIgR extracellular domain (ECD) (human, UniProt P01833 19-638)
# T4 construct: Bought from R&D Systems (Cat 2717-PG-050); also called hpIgR ECD
# T4 sequence (P01833 other isoform, or with tags, fused parts or gaps): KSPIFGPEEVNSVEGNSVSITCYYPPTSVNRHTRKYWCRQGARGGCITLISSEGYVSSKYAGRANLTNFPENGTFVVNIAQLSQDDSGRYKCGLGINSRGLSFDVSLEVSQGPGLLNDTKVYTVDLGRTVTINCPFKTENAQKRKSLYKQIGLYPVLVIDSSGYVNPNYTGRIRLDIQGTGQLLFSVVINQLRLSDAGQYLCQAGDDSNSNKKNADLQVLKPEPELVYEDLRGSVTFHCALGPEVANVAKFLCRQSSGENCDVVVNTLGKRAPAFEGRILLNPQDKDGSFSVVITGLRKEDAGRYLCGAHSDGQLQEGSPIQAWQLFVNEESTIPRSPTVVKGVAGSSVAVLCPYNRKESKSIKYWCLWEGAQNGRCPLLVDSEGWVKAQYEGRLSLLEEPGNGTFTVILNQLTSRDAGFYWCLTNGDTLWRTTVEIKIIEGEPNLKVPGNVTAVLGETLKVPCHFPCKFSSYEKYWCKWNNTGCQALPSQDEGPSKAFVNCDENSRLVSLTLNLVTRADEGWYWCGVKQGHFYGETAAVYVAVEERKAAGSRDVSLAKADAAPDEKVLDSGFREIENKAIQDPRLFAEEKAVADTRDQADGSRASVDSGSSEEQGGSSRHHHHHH
# Assay: SPR
row,Binder,binding result
1,B2,no binding (tested: 30 nM)
2,B3,no binding (tested: 30 nM)
3,B4,no binding (tested: 30 nM)
4,B1,no binding (tested: 30 nM)
5,B5,no binding (tested: 30 nM)
6,B6,no binding (tested: 30 nM)
